Measured values as given in patent publication US20220389120A1.

Target: PD-1 (UniProt Q15116)
Assay: PD-1 blocking assay

Sequence of PD-1 (Q15116 25-167): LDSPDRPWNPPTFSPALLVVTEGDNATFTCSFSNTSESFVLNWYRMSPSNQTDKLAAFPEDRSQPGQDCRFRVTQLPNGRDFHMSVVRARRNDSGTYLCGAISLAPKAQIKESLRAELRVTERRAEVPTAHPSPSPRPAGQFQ

Keytruda
IC50: 282 pM
